In PMC8611094 one finds Kd data, which are given here for 1 sequence.

As usually defined, the Kd is the free concentration of one partner at which half of the binding sites on the other are occupied at equilibrium, for simple one-to-one binding.

The target in the data set is T1, DHX36 (UniProt Q9H2U1).
T1 sequence (Q9H2U1 whole entry, looked up): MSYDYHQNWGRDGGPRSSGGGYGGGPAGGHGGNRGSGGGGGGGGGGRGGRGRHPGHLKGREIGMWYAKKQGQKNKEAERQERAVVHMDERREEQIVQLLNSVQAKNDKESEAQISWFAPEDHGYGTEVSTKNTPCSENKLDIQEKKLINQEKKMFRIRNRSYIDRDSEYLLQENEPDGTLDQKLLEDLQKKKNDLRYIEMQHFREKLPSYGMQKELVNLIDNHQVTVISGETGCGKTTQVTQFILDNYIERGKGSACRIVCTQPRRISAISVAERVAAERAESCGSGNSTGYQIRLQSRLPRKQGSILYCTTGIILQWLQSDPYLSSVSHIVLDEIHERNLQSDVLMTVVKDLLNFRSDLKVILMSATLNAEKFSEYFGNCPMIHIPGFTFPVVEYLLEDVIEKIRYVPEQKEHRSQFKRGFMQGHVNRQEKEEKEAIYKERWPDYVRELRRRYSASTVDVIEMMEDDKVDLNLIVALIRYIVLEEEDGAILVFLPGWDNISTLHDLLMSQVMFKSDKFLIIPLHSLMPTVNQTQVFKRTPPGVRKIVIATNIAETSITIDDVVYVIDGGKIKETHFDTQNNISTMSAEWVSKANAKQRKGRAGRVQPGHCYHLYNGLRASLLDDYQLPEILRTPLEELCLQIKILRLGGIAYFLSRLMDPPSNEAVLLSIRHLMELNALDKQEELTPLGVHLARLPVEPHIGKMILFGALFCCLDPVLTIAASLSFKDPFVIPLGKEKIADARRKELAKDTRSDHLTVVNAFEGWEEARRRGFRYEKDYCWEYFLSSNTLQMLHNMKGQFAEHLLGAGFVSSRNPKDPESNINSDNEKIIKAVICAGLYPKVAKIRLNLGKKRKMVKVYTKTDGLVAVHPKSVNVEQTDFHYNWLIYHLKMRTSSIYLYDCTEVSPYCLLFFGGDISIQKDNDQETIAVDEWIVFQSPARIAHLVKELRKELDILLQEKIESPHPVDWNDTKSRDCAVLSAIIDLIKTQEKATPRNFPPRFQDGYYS
The experiment in a line: ELISA. Particulars: ELISA performed as in Zyner et al. (ref 43); buffer, salt, pH and temperature not given in the material. (In general: In an ELISA, binding on a coated surface is turned into a signal by an enzyme label.)

Turning to UGUGGGAGGGGCGGGUCUGGGUGC [NRAS G4], the Kd amounted to 0.9 nM.
